According to publication PMC9407945 (Science immunology, 2022):
Changes are numbered by the printed parent chain.

B1: SW186 monoclonal antibody (murine-human chimeric, human IgG1 backbone) (antibody, V domains shown)
VH: QVQLQQSGAELVKPGASVKISCKASGVAFSSYWMNWVKQRPGKGLEWIGQIYPGDGDTNYNGKFKGKATLTADKSSSTAYMQLSSLSSEDSAVYFCARGFIATVEETMDYWGQGTSVTVSS
VL: DIQMTQTTSSLSASLGDRVTISCRASQDISNYLNWYQQKPDGTVKLLIYYTSRLHSGVPSRFSGSGSGTDYSLTISNLEQEDIATYFCQQSHTLPWTFGGGTKLEIK
B2: SW186 (murine variable regions, murine-human chimeric) (Fab, V domains shown)
VH: B1 VH
VL: B1 VL
B3: SW186 Fab (Fab, V domains shown)
VH: B1 VH
VL: B1 VL
B4: SW186 Fab (fragment antigen-binding region of SW186) (Fab, V domains shown)
VH: B1 VH
VL: B1 VL
B5: humanized SW186 H1L1 (antibody, V domains shown)
VH: QVQLVQSGAEVKKPGSSVKVSCKASGVAFSSYWMNWVRQAPGQGLEWMGQIYPGDGDTNYNGKFKGRVTITADKSTSTAYMELSSLRSEDTAVYYCARGFIATVEETMDYWGQGTLVTVSS
VL: DIQMTQSPSSLSASVGDRVTITCRASQDISNYLNWYQQKPGKAPKLLIYYTSRLHSGVPSRFSGSGSGTDFTLTISSLQPEDFATYYCQQSHTLPWTFGGGTKLEIK
B6: humanized SW186 H4L4 (antibody, V domains shown)
VH: B5 VH with R38K, M48I, R67K, V68A, Y95F
VL: B5 VL with A43T, P44V, F71Y, Y87F
B7: humanized SW186 H4L1 (antibody, V domains shown)
VH: B5 VH with R38K, M48I, R67K, V68A, Y95F
VL: B5 VL
B8: humanized SW186 H1L3 (antibody, V domains shown)
VH: B5 VH
VL: B5 VL with F71Y, Y87F
B9: humanized SW186 H4L3 (antibody, V domains shown)
VH: B5 VH with R38K, M48I, R67K, V68A, Y95F
VL: B5 VL with F71Y, Y87F
B10: humanized SW186 H2L1 (antibody, V domains shown)
VH: B5 VH with M48I, Y95F
VL: B5 VL
B11: humanized SW186 H4L3 (antibody, V domains shown)
VH: B5 VH with R38K, M48I, R67K, V68A, Y95F
VL: B5 VL with F71Y, Y87F
B12: humanized SW186 H3L3 (antibody, V domains shown)
VH: B5 VH with M48I, V68A, Y95F
VL: B5 VL with F71Y, Y87F
B13: humanized SW186 H2L2 (antibody, V domains shown)
VH: B5 VH with M48I, Y95F
VL: B5 VL with Y87F
B14: humanized SW186 H3L2 (antibody, V domains shown)
VH: B5 VH with M48I, V68A, Y95F
VL: B5 VL with Y87F
B15: humanized SW186 H3L4 (antibody, V domains shown)
VH: B5 VH with M48I, V68A, Y95F
VL: B5 VL with A43T, P44V, F71Y, Y87F
B16: humanized SW186 H2L3 (antibody, V domains shown)
VH: B5 VH with M48I, Y95F
VL: B5 VL with F71Y, Y87F
B17: humanized SW186 H2L1 (antibody, V domains shown)
VH: B5 VH with M48I, Y95F
VL: B5 VL
B18: humanized SW186 H4L4 (antibody, V domains shown)
VH: B5 VH with R38K, M48I, R67K, V68A, Y95F
VL: B5 VL with A43T, P44V, F71Y, Y87F
B19: humanized SW186 H2L4 (antibody, V domains shown)
VH: B5 VH with M48I, Y95F
VL: B5 VL with A43T, P44V, F71Y, Y87F
B20: humanized SW186 H1L4 (antibody, V domains shown)
VH: B5 VH
VL: B5 VL with A43T, P44V, F71Y, Y87F
B21: humanized SW186 H2L4 (antibody, V domains shown)
VH: B5 VH with M48I, Y95F
VL: B5 VL with A43T, P44V, F71Y, Y87F
B22: humanized SW186 H1L2 (antibody, V domains shown)
VH: B5 VH
VL: B5 VL with Y87F
B23: humanized SW186 H4L2 (antibody, V domains shown)
VH: B5 VH with R38K, M48I, R67K, V68A, Y95F
VL: B5 VL with Y87F
B24: humanized SW186 H1L2 (antibody, V domains shown)
VH: B5 VH
VL: B5 VL with Y87F
B25: humanized SW186 H3L3 (antibody, V domains shown)
VH: B5 VH with M48I, V68A, Y95F
VL: B5 VL with F71Y, Y87F
B26: humanized SW186 H4L1 (antibody, V domains shown)
VH: B5 VH with R38K, M48I, R67K, V68A, Y95F
VL: B5 VL
B27: humanized SW186 H2L3 (antibody, V domains shown)
VH: B5 VH with M48I, Y95F
VL: B5 VL with F71Y, Y87F
B28: humanized SW186 H3L2 (antibody, V domains shown)
VH: B5 VH with M48I, V68A, Y95F
VL: B5 VL with Y87F
B29: humanized SW186 H1L3 (antibody, V domains shown)
VH: B5 VH
VL: B5 VL with F71Y, Y87F
B30: humanized SW186 H2L2 (antibody, V domains shown)
VH: B5 VH with M48I, Y95F
VL: B5 VL with Y87F
B31: humanized SW186 H3L1 (antibody, V domains shown)
VH: B5 VH with M48I, V68A, Y95F
VL: B5 VL
B32: humanized SW186 H1L4 (antibody, V domains shown)
VH: B5 VH
VL: B5 VL with A43T, P44V, F71Y, Y87F
B33: humanized SW186 H3L1 (antibody, V domains shown)
VH: B5 VH with M48I, V68A, Y95F
VL: B5 VL
B34: humanized SW186 H4L2 (antibody, V domains shown)
VH: B5 VH with R38K, M48I, R67K, V68A, Y95F
VL: B5 VL with Y87F
B35: humanized SW186 H3L4 (antibody, V domains shown)
VH: B5 VH with M48I, V68A, Y95F
VL: B5 VL with A43T, P44V, F71Y, Y87F

Experiments:
[1] = molecular target: T1, SARS-CoV-2 spike ectodomain (S-ecto), Wuhan-hu-1 strain, residues 1-1208 with 2P mutation (SARS-CoV-2, Wuhan-hu-1, UniProt P0DTC2, 2P mutation at residues 986 and 987); experiment: cell-based or functional assay
[2] = molecular target: SARS-CoV-2 spike ectodomain (S-ecto), Wuhan-hu-1 strain, 2P (SARS-CoV-2, Wuhan-hu-1, UniProt P0DTC2, 2P mutation at residues 986 and 987 | 2P mutation at residues 986 and 987, biotin (NHS-sulfo-LC-Biotin, EZ-link biotinylation kit)); experiment: BLI; settings: both partners purified
[3] = molecular target: SARS-CoV-2 spike ectodomain (S-ecto), Wuhan-hu-1, 2P (SARS-CoV-2, Wuhan-hu-1, UniProt P0DTC2, 2P mutation at residues 986 and 987, biotinylated (EZ-link NHS-sulfo-LC-Biotin) for the BLI assay); experiment: BLI; settings: both partners purified
[4] = molecular target: T1, SARS-CoV-2 spike ectodomain (S-ecto), …; experiment: BLI; settings: both partners purified

Binder	Kd [2] [nM]	koff [2] [s⁻¹]	kon [2] [M⁻¹ s⁻¹]	Kd [3] [nM]	also measured
B1	–	–	–	–	neutralisation of infectious mNeonGreen SARS-CoV-2, WA1 strain, IC50 [1]: ~0.04 µg/mL
B2	1.09	0.000128	117000	–	–
B3	–	–	–	1.09	–
B4	–	–	–	–	Kd [4]: ~1 nM
B5	–	–	–	10	–
B6	1.57	0.000338	216000	–	–
B7	4.14	0.00077	186000	–	–
B8	–	–	–	4.37	–
B9	2.4	0.000424	177000	–	–
B10	18.1	0.00078	43100	–	–
B11	–	–	–	2.4	–
B12	–	–	–	5.82	–
B13	–	–	–	12.6	–
B14	6.09	0.00122	201000	–	–
B15	2.6	0.000469	181000	–	–
B16	3.72	0.000713	191000	–	–
B17	–	–	–	18.1	–
B18	–	–	–	1.57	–

Binder	Kd [2] [nM]	koff [2] [s⁻¹]	kon [2] [M⁻¹ s⁻¹]	Kd [3] [nM]	also measured
B19	–	–	–	3.14	–
B20	–	–	–	5.03	–
B21	3.14	0.000603	192000	–	–
B22	–	–	–	26.2	–
B23	5.86	0.000953	163000	–	–
B24	26.2	0.00126	48200	–	–
B25	5.82	0.000761	131000	–	–
B26	–	–	–	4.14	–
B27	–	–	–	3.72	–
B28	–	–	–	6.09	–
B29	4.37	0.000598	137000	–	–
B30	12.6	0.00151	120000	–	–
B31	6.69	0.00119	178000	–	–
B32	5.03	0.000519	103000	–	–
B33	–	–	–	6.69	–
B34	–	–	–	5.86	–
B35	–	–	–	2.6	–
